These are literature values, as cited in paper PMC3518592.

For orientation: Kd means a measure of binding affinity in units of concentration.

The target of the series is ubiquitin (UniProt P0CG48).

Sequence of Vps9 CUE (P54787 405-451): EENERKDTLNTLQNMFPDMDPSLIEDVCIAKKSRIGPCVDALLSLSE

Regarding Vps9 CUE (from UniProt P54787), the Kd is 20 µM.
